# Measured values: publication PMC5019495 (Nature, 2016)
# Positions count from the first letter of the chain named. Names may count otherwise. Read-outs that look alike come from different tables or passages of the source.
# B1: Smt3^K11C-Alexa488 (natural protein)
# chain: SDSEVNQEACPEVKPEVKPETHINLKVSDGSSEIFFKIKKTTPLRRLMEAFAKRQGKEMDSLRFLYDGIRIQADQTPEDLDMEDNDIIEAHREQIGG
# modifications: Alexa Fluor 488 maleimide on Cys11
# B2: Ubc9^C93K-Smt3 thioester mimetic (complex)
# chain 1: MSSLCLQRLQEERKKWRKDHPFGFYAKPVKKADGSMDLQKWEAGIPGKEGTNWAGGVYPITVEYPNEYPSKPPKVKFPAGFYHPNVYPSGTIKLSILNEDQDWRPAITLKQIVLGVQDLLDSPNPNSPAQEPAWRSFSRNKAEYDKKVLLQAKQYSK
# chain 2: B1 chain with C10K
# modifications: Lys93 linked to the C-terminus of Smt3 (stable peptide bond) | C-terminus linked to Lys93 of Ubc9
# B3: Ubc9^A129K/K153R-Smt3 thioester mimetic (complex)
# chain 1: B2 chain 1 with K93C, A129K, K153R
# chain 2: B1 chain with C10K
# modifications: Lys129 linked to the C-terminus of Smt3 | C-terminus linked to Lys129 of Ubc9
# Assays:
# [1] = biological target: T1, yeast E2 Ubc9 (wild type) (yeast, UniProt P50623 1-157); assay: fluorescence polarisation
# T1 sequence (looked up): B2 chain 1 with K93C
# [2] = biological target: T2, yeast E3 active fragment Siz1^(167–465) (yeast, UniProt Q04195 167-465); assay: competitive inhibition of multiple turnover SUMO conjugation
# T2 sequence (looked up): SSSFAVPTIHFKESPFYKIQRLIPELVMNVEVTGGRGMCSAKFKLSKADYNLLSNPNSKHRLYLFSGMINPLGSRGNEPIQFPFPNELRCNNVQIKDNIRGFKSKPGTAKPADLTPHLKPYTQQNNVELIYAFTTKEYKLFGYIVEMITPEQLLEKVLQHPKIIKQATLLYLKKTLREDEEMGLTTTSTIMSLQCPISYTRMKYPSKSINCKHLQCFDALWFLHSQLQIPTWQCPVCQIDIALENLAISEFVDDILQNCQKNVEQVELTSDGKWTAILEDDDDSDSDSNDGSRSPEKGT
# [3] = biological target: T2, yeast E3 active fragment Siz1^(167–465); assay: as above; remark: listed apart in the source
binder,measurement,setting,value
B1,Kd,[1],24.6 nM
B2,Ki,[2],2050 nM
same,Ki,[3],1440 nM
B3,Ki,[2],4330 nM
same,Ki,[3],3150 nM
